The sequences below were run on Escherichia coli TOP10 (assay: shrunken log2 fold change of peptide-encoding DNA abundance (4.5 h post-induction vs induction); higher = less antimicrobial activity (less host growth inhibition)). Conditions: time post-induction: 4.5 h; library: site-saturation at positions 5, 18, 19, 20.
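Further: peptides expressed intracellularly from a pBAD plasmid library in pooled LB shake-flask culture, induced with 0.3% L-arabinose, DNA abundance read by NGS, three biological replicates, DESeq2 with apeglm shrinkage.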

RRIRLRPPRLPRPRPRPFTYPRP and RRIRWRPPRLPRPRPRPHNVPRP are within 0.2 log units of each other in “shrunken log2 fold change” value: -0.0906 for the first, -0.178 for the second.

RRIRPRPPRLPRPRPRPAFAPRP and RRIRMRPPRLPRPRPRPPDYPRP are within 0.2 log units of each other in “shrunken log2 fold change” value: 0.374 for the first, 0.345 for the second.

First: RRIRTRPPRLPRPRPRPRIWPRP
Second: RRIRDRPPRLPRPRPRPVALPRP
The “shrunken log2 fold change” value of the first is lower: 0.104 for the first, 0.816 for the second.

Going from RRIRQRPPRLPRPRPRPPKGPRP to RRIRMRPPRLPRPRPRPMFQPRP, the “shrunken log2 fold change” value falls from 0.021 to -0.228.

RRIRKRPPRLPRPRPRPQSYPRP and RRIRSRPPRLPRPRPRPTVRPRP are within 0.2 log units of each other in “shrunken log2 fold change” value: 0.04 for the first, -0.00791 for the second.

Compared with RRIRARPPRLPRPRPRPHLEPRP, RRIRMRPPRLPRPRPRPTDIPRP is higher in “shrunken log2 fold change” value: -0.124 for the first, 0.501 for the second.

First: RRIRMRPPRLPRPRPRPWEKPRP
Second: RRIRIRPPRLPRPRPRPNEIPRP
The “shrunken log2 fold change” value of the first is higher: 0.217 for the first, -0.191 for the second.

First: RRIRARPPRLPRPRPRPCGCPRP
Second: RRIRWRPPRLPRPRPRPDHPPRP
The “shrunken log2 fold change” value of the first is higher: 0.807 for the first, -0.0785 for the second.

Going from RRIRYRPPRLPRPRPRPKFIPRP to RRIRQRPPRLPRPRPRPWCDPRP, the “shrunken log2 fold change” value rises from -1.39 to -0.191.

Compared with RRIRMRPPRLPRPRPRPGWPPRP, RRIRHRPPRLPRPRPRPNGHPRP is lower in “shrunken log2 fold change” value: 0.595 for the first, -0.0552 for the second.

RRIRWRPPRLPRPRPRPEGTPRP and RRIRPRPPRLPRPRPRPVCKPRP are within 0.2 log units of each other in “shrunken log2 fold change” value: 0.103 for the first, 0.0717 for the second.

RRIRGRPPRLPRPRPRPFTYPRP and RRIRSRPPRLPRPRPRPAFQPRP are within 0.2 log units of each other in “shrunken log2 fold change” value: 0.0977 for the first, -0.0696 for the second.

RRIRMRPPRLPRPRPRPSHTPRP and RRIRGRPPRLPRPRPRPFVPPRP are within 0.2 log units of each other in “shrunken log2 fold change” value: 0.0597 for the first, 0.0587 for the second.

Compared with RRIRFRPPRLPRPRPRPNNKPRP, RRIRYRPPRLPRPRPRPSYAPRP is higher in “shrunken log2 fold change” value: -0.646 for the first, -0.149 for the second.

RRIRLRPPRLPRPRPRPMTDPRP and RRIRSRPPRLPRPRPRPYVHPRP are within 0.2 log units of each other in “shrunken log2 fold change” value: -0.189 for the first, -0.175 for the second.

First: RRIRPRPPRLPRPRPRPEKIPRP
Second: RRIRYRPPRLPRPRPRPYCGPRP
The “shrunken log2 fold change” value of the first is higher: -0.0804 for the first, -0.456 for the second.

RRIRHRPPRLPRPRPRPRIGPRP and RRIRHRPPRLPRPRPRPRQEPRP are within 0.2 log units of each other in “shrunken log2 fold change” value: 0.172 for the first, 0.0426 for the second.

Compared with RRIRGRPPRLPRPRPRPSGHPRP, RRIRPRPPRLPRPRPRPVPGPRP is higher in “shrunken log2 fold change” value: -0.202 for the first, 0.202 for the second.

Going from RRIRHRPPRLPRPRPRPFVVPRP to RRIRARPPRLPRPRPRPDAYPRP, the “shrunken log2 fold change” value rises from -0.16 to 0.522.

RRIRCRPPRLPRPRPRPEQGPRP and RRIRNRPPRLPRPRPRPPIVPRP are within 0.2 log units of each other in “shrunken log2 fold change” value: -0.205 for the first, -0.154 for the second.

Going from RRIRDRPPRLPRPRPRPTRKPRP to RRIRLRPPRLPRPRPRPFIAPRP, the “shrunken log2 fold change” value falls from 0.385 to -0.496.

Compared with RRIRARPPRLPRPRPRPAEQPRP, RRIRDRPPRLPRPRPRPEGGPRP is higher in “shrunken log2 fold change” value: 0.728 for the first, 0.966 for the second.

RRIRFRPPRLPRPRPRPIHIPRP and RRIRNRPPRLPRPRPRPSLIPRP are within 0.2 log units of each other in “shrunken log2 fold change” value: -0.022 for the first, -0.138 for the second.

First: RRIRIRPPRLPRPRPRPFAKPRP
Second: RRIRNRPPRLPRPRPRPANIPRP
The “shrunken log2 fold change” value of the first is lower: -0.295 for the first, -0.0793 for the second.

Compared with RRIRYRPPRLPRPRPRPQWDPRP, RRIRVRPPRLPRPRPRPLCHPRP is higher in “shrunken log2 fold change” value: -0.842 for the first, -0.364 for the second.

First: RRIRKRPPRLPRPRPRPSSPPRP
Second: RRIRLRPPRLPRPRPRPWTTPRP
The “shrunken log2 fold change” value of the first is lower: -0.563 for the first, -0.206 for the second.

Going from RRIRCRPPRLPRPRPRPIDVPRP to RRIRTRPPRLPRPRPRPCEAPRP, the “shrunken log2 fold change” value rises from -0.856 to 0.114.

Going from RRIRQRPPRLPRPRPRPFQFPRP to RRIRNRPPRLPRPRPRPSHMPRP, the “shrunken log2 fold change” value falls from -0.252 to -0.883.

Going from RRIRDRPPRLPRPRPRPKTDPRP to RRIRARPPRLPRPRPRPADNPRP, the “shrunken log2 fold change” value rises from -0.314 to 0.383.

RRIRCRPPRLPRPRPRPCMYPRP and RRIRNRPPRLPRPRPRPWPQPRP are within 0.2 log units of each other in “shrunken log2 fold change” value: -0.0898 for the first, -0.064 for the second.
